Test results reported in patent US20240343803A1 (SHANDONG SIMCERE BIOPHARMACEUTICAL, published 2024).

How the values were obtained:
[1] = molecular target: T1, human PVRIG-his (AcroBiosystems, Cat NO. PVG-H52H4) (human, UniProt Q6DKI7 41-171, limits assumed); assay: SPR (BIAcore), antibody captured on Protein A chip, human PVRIG-His analyte
T1 construct: also called human PVRIG protein
T1 sequence (looked up): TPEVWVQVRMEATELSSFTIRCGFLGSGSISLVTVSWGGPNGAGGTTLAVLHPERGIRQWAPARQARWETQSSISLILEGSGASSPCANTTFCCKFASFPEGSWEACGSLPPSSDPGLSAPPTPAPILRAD
Description: Biacore was used to detect the specific binding between anti-PVRIG antibody and human PVRIG protein. Protein A chip was used in the BIAcore assay. The time required for the chip to capture the diluted antibody and saturate the binding antigen to reach Rₘₐₓ (Maximum binding capacity, 50 RU) was measured by manual run. […] The affinity of antibody for antigen was measured by multi-cycle kinetics. In each cycle, the antibodies were injected prior to the injection of gradient concentraions of PVRIG proteins allowing the occurrence of antibody-antigen association and dissociation After each cycle, the Protein A chip was regenerated by Glycine, pH 1.5 (to remove the proteins on the chip). The affinity of antibody for antigen was calculated by BIAcore T200 analysis software.
The methods refer to Example 10.

[2] = molecular target: T2, human PVRIG on FlpinCHO-PVRIG cells (human, UniProt Q6DKI7 41-326); assay: FACS, FlpinCHO-PVRIG cells
T2 construct: whole, on cells
T2 sequence (looked up): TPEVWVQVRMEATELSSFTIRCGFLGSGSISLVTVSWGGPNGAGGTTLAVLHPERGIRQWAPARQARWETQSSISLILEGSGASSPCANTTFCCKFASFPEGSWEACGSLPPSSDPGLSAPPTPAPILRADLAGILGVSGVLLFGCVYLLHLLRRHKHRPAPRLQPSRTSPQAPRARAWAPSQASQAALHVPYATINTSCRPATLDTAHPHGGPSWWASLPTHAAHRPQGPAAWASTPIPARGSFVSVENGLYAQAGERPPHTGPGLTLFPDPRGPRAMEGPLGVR
Description: The Ham's F12 (Gibico, 21127-022) complete medium containing 10% FBS was then added to terminate the digestion and acquire cell suspension. After counting with a cell counter (Beckman Coulter, Vi-CELL), an appropriate amount of cell suspension was centrifuged at 350×g to remove the supernatant, washed twice with PBS, stained with Zombie violet (Biolegend, 423114) and incubated at room temperature for 20 minutes. After incubation, the cells were added with staining buffer (2% FBS+PBS) to stop staining, centrifuged at 350×g to remove the supernatant, washed twice and resuspended with staining buffer to a density of 2×10⁶ cells/mL. The cells were plated into a 96-well plate (50 μL of cell suspension per well) for further use. The antibodies were diluted from the highest concentration of 46 nM (two-fold concentration) with staining buffer by 3.3-fold serial dilution. The diluted antibodies were added to the well containing 50 μL of cell suspension. The plate was placed on a microplate shaker at 400 rpm for 1 minute to fully mix the antibodies and cells, and then incubated at 4° C. for 30 minutes. After the incubation, the cells were washed twice with staining buffer (200 μL per well) and centrifuged at 350×g for 5 minutes to discard the supernatant. The PE goat anti-human IgG Fc antibody (ebioscience, 12-4998-82) was diluted 250 times with staining buffer, added into the washed wells (100 μL per well), mixed well, and stained at 4° C. for 30 minutes. After staining, the cells were washed twice with staining buffer, finally resuspended with 200 μL staining buffer and analyzed by flow cytometry (BD, Canto II). The stronger the signal, the stronger the ability of the antibodies binds to PVRIG. An antibody binding curve was drawn with concentration of antibodies as the abscissa and the corresponding Mean Fluorescence Intensity (MFI) as the ordinate. The AUC value of the curve was calculated by using a Four Parameter Logistic Fit (GraphPadPrism9). The stronger the AUC value, the stronger the ability of the antibodies binds to FlpinCHO-PVRIG and FlpinCHO-cyno PVRIG. […] The binding activity of the antibodies was normalized to the positive control COM701-hIgG1 and SRF813-hIgG1.

[3] = molecular target: T1, human PVRIG-his (AcroBiosystems, Cat …); assay: competition ELISA, PVRIG-His coated, competitor human PVRL2-mFc; design: AUC: unit not given here
Description: The ELISA plate was pre-coated with 100 μL/well of 0.5 μg/mL human PVRIG-his protein (AcroBiosystems, Cat NO. PVG-H52H4). The tested anti-PVRIG antibodies were diluted from the highest concentration of 16 nM (two-fold concentration). The diluted antibodies were mixed with 18 ng/ml human PVRL2-mFc (AcroBiosystems, Cat NO. CD2-H5257) in equal volume, added into the plate (100 μL/well), and incubated with shaking at room temperature for 2.0 hours. […] A HRP substrate, TMB (Thermo, Cat NO. 34029) was added into wells after washing the plate again for color development. After adding a termination solution to terminate the reaction, the absorbance value was read by a microplate reader (MD i3×). An inhibiting curve was drawn with concentration of antibodies as the abscissa and the corresponding OD value as the ordinate. The IC50 value was calculated by using a Four Parameter Logistic Fit (GraphPadPrism9). The smaller the IC50 value, the stronger the ability of the antibodies inhibits the binding between PVRIG and PVRL2. The positive and negative controls are the same as in Example 8.
The methods refer to Example 11. The inhibiting activity of the humanized antibodies was normalized to the corresponding parental antibodies. If the percentage value is higher than 100%, the inhibiting effect of humanized antibodies is better than that of parental antibodies.

| Binder | Kd [1] [nM] | koff [1] [s⁻¹] | kon [1] [M⁻¹ s⁻¹] | AUC % to COM701-hIgG1 [2] [%] | AUC % to SRF813-hIgG1 [2] [%] | AUC % to parental Ab [2] [%] | % relative activity (AUC) parental antibody/test antibody [3] [%] | % relative activity (IC50) parental antibody/test antibody [3] [%] | AUC [3] | IC50 [3] [nM] |
| --- | --- | --- | --- | --- | --- | --- | --- | --- | --- | --- |
| PVRIG-A50 (Fc fusion, heavy chain antibody VHH-hinge-CH2-CH3, human IgG1 constant part; also called PVRIG-50; not shown: human IgG1 hinge-CH2-CH3) EVQLVESGGGLVQPGGSLRLSCAASGFTFSYYDMSWVRQAPGKGLEWVSTINSNGGRTSYVDSVKGRFTISRDNTKNTLYLQMNSLKPEDTAVYYCVEGDPHNFGLENLSLRDFGSWGQGTQVTVSS | 0.043 | 1.9e-05 | 443000 | 73.4 | 130 | 100 |  |  |  |  |
| PVRIG-A50-H1a (Fc fusion, humanized variant of PVRIG-A50; also called A50.VH1a; not shown: constant part not restated for the humanized forms; parents are VHH-hinge-CH2-CH3 of human IgG1; detected by anti-human) EVQLVESGGGLVQPGGSLRLSCAASGFTFSYYDMSWVRQAPGKGLEWVSTINSDGGRTSYVDSVKGRFTISRDNSKNTLYLQMNSLRAEDTAVYYCVEGDPHNFGLENLSLRDFGSWGQGTMVTVSS | 0.0451 | 1.92e-05 | 425000 | 70.4 | 125 | 96 | 82.5 | 73 | 2.43 | 1.06 |
| PVRIG-A50-H1b (Fc fusion, humanized variant of PVRIG-A50; also called A50.VH1b; not shown: constant part not restated for the humanized forms; parents are VHH-hinge-CH2-CH3 of human IgG1; detected by anti-human) EVQLVESGGGLVQPGGSLRLSCAASGFTFSYYDMSWVRQAPGKGLEWVSTINSDGGRTSYVDSVKGRFTISRDNSKNTLYLQMNSLRAEDTAVYYCVEGDPHNFGLESLSLRDFGSWGQGTMVTVSS | 0.0804 | 2.82e-05 | 350000 | 60.5 | 107 | 82.5 | 105 | 125 | 2 | 0.847 |
| PVRIG-A50-H1c (Fc fusion, humanized variant of PVRIG-A50; also called A50.VH1c; not shown: constant part not restated for the humanized forms; parents are VHH-hinge-CH2-CH3 of human IgG1; detected by anti-human) EVQLVESGGGLVQPGGSLRLSCAASGFTFSYYDMSWVRQAPGKGLEWVSTINSDGGRTSYVDSVKGRFTISRDNSKNTLYLQMNSLRAEDTAVYYCVEGDPHNFGLENLALRDFGSWGQGTMVTVSS | 0.0462 | 2.03e-05 | 438000 | 69.2 | 122 | 94.2 | 76.3 | 65.9 | 2.62 | 1.18 |
| PVRIG-A50-H1e (Fc fusion, humanized variant of PVRIG-A50; also called VH1e; not shown: constant part not restated for the humanized forms; parents are VHH-hinge-CH2-CH3 of human IgG1; detected by anti-human) EVQLVESGGGLVQPGGSLRLSCAASGFTFSYYDMSWVRQAPGKGLEWVSTINSNAGRTSYVDSVKGRFTISRDNSKNTLYLQMNSLRAEDTAVYYCVEGDPHNFGLESLSLRDFGSWGQGTMVTVSS | 0.0551 | 1.46e-05 | 265000 | 60.3 | 107 | 82.2 | 86.2 | 79.5 | 2.32 | 0.977 |
| PVRIG-A105 (Fc fusion, heavy chain antibody VHH-hinge-CH2-CH3, human IgG1 constant part; not shown: human IgG1 hinge-CH2-CH3) EVQLVESGGGLVQAGGSLRLSCAASGRTFDRHTMTWFRQAPGKEREFVATASRIPGDTYYSHSVKGRFTISRDNAKNTVYLQLNNLKPEDTAVYYCAATSAYCSEVDCYEKGSWYDNWGQGIQVTVSS | 0.675 | 0.000486 | 721000 | 124 | 186 | 100 |  |  |  |  |
| PVRIG-A118 (Fc fusion, heavy chain antibody VHH-hinge-CH2-CH3, human IgG1 constant part; not shown: human IgG1 hinge-CH2-CH3) QVQLVESGGGLVQAGGSLRLSCAASETYFDLYVMGWYRQAPGKDRELVATITYTGSIKIVDSVKDRFTISRGDAKNTVSLQMSSLKPEDTAVYFCNADPSGLGRKVYWGQGTQVTVSS | 0.483 | 0.00102 | 2.12e+06 | 136 | 191 | 100 |  |  |  |  |
